{"source": "paper PMC11388503", "target": "T1, procalcitonin (UniProt P01258 26-141)", "T1 sequence": "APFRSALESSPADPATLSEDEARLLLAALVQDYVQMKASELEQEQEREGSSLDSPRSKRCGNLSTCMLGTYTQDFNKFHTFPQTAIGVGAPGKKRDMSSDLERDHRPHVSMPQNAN", "test": "electrochemical IDE sensor", "data": [{"binder": "GGCGCCGTCAAGGCATTACAATTACGGATATGAACTCGAC (ssDNA, 5'-SH (thiol))", "note": "[complementary aptamer]", "values": [{"measurement": "binding result", "value": "no binding"}]}]}
